This note sets out measurements from patent publication US20260139001A1.

The assay concerns the target SARS-CoV-2 Spike RBD, Wuhan (SARS-CoV-2) (UniProt P0DTC2).

“Ribosomally constructed Wuhan-NS (VHH72 V104UAG construct translated with NBDxK-tRNACUA)”: the normalized tube fluorescence was 0.58.
